Experimental data from the nanobody polyreactivity screen of Harvey et al. (2022).

Experiment: yeast display, Sf9 membrane polyspecificity reagent, FACS + sequencing; frameworks hold sequencing errors
In short: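 Using colony PCR, genes from sorted yeast display clones were amplified, then sequenced on MiSeq at 2 × 250 and filtered by CDR length. The clones had been stained with 10% biotinylated, detergent-solubilized Sf9 membrane reagent for 1 hour at 4 °C and sorted by FACS into low and high (top ~1%) gates on anti-HA and streptavidin fluorescence. Polyreactivity labels come from the gate of origin.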

Row | Sequence | polyreactivity (PSR sort gate)
1 | QVQLVESGGGLVQAGGSLRLSCAASGSTFTYYAMGWYRQAPGKERELVAAITGRGGRTYYADSVKGRFTISRDNAKNSVYLQMNSLKREDTAVYYCNTVGLNYGYQYSNGYWGQGSQVTVSS | high polyreactivity
2 | QVQLVESGGGLVQAGGSLRLSCAASGGIFFSYAMGWYRQAPGKERELVAAIRTNGGTTYYADSVKGRFTISRDNAKNTVYLQMNRLKPEDTAVYYCAALPGGYYDRGEYDYWGQGTQVTVSS | low polyreactivity
3 | QVQLVESGGGLFQAGVSLRLSCAASGSTIGVNAMGWSRKAPGKERELVAAISRGGGRTYYADSVKWRFTISRDIAKKTVYLQMICLKPEDTAVYYCNTDFGARMGYWGQGTEVTVSS | high polyreactivity
4 | QVQLVESGGGLVQAGGSLRLSCAASGRTFWFYGMGWYREAAGKEREFVARISGSGGSTYYADSVKGRFTISRDNAKNTVYLQMNSLKPEDTAVYYCAKDNRYPYPSGLDYWGQGTQVTVSS | high polyreactivity
5 | QVQLVESGGGLVQAGGSLRLSSAASGRTFQDNAMGSYRQAPGKERELVAAISWRGGSTNYADSVKGRFTISRDNAKNTVYLQMNSLIPEDTAVYYCNRDPRKYGKLDYWGQGTQVTVSS | low polyreactivity
6 | QVQLVESGGGLVQAGGSLRLRCAASGSIFIGYAMGWYRQAPGKERELVAAITSGSITNYAYSVKGRFTISRDNAKNTVYLLMNSLKPEDTAVYYCNADVNFIDDDYWGQGTQVTVSS | low polyreactivity
7 | QEQLVESGGGLDQAGGSLRLSCAASGYTFVNYAMGWYRQAPGKERELVAAITSRGSSTYYADSVKGRFTISRDNAKNTVYLQMNSLKPEDTAVYYCAAYSSSLQGGYWGQGTQVTVSS | high polyreactivity
8 | QEQHVESGGGLVQAGGSLRLSSAASVNIIGFYAKGWYREAPGKESEFVAAISFGTDRTYYADSVKGRFTISRENAKNTVYLQMNSLKPEDTALYYCNRRCNNGVRYGECDYWGQGTQVTVSS | high polyreactivity
9 | QVQLQESGGGLVQAGGSLRLSCAASGNFFDADIMGWYRQAPGKERELVASITDGGSTNYAVSVKGRFTISRGNTKNTVYLLMNCLKPEDTSVYYCAAIAYPDIPTYFDYNSDYFYWGQGTQVTVSS | high polyreactivity
10 | QLQLVESGGGLVQAGGSLRLSCAASGLTICRYAMAWYRQAPGKEREFVATISQNGGRTYYADSVKGRFTISRDNAKNTVYLQMNSLKPEDTAVYYCAADDWRWGYDYWGQGTQVTVSS | high polyreactivity
11 | QVQLVESGGGLVQAGGSLRLSCAASGRTFARNAMGWYRHAPGKERELVAAISGSGGITYYADSVKGRFTISRDNAKNTVYLQMNSLKPEDTAVYYCNAGNNVVVDYDYWGQGTQVTVSS | low polyreactivity
12 | QVQLVESGGGLVQAGGSLRLSCGASGYISVGYAMGWYRPAPGKERELVAAITESGGSTYYADSVKGRFTISRDNAKNTVYLQMNSLKPEDSAVYYCAADVIYEDSMDYWGQGTQVTVSS | low polyreactivity
13 | QVQLVESGGGLVQAGGSLRLSCAASGSTFFTYAMGWYRQAPGKERELVASISIGGSTNYADSVKGRFTISRDNAKNTVYLQMNSLKPEDTAVYYCAIRYFTFGVDYDYWGHGTQVTVSS | low polyreactivity
14 | QFQLVESGGGLVQAGGSLRLSCAASGRIFKTYTMGWYRQAPGKERELVAVITSGGGTYYADSVKGRFTISRDNAKNTVYLQMNSLKPEDTAVYYCAARGMESPYGYWGQGTQVTVSS | low polyreactivity
15 | QVQLVESGGGLVQAGASLRLSCAASGSIFSGYTMGWYRQAPGKERELVAGISYRGGSTYYADSVKGRFTISRDNAKNTVYLQMNSLKPEDTAVYYCAALYYRRGSLNYEYWGQGTQVTVSS | high polyreactivity
16 | QVQLVESGGGLVQAGGSLRLSCAASGRIFVIYAKGWYRQAPGKERELVAVISSDGSTYYADSVKGRFTISRDNAKNTVYLQMNSLKPEDTAVYYCAADRIGRYRPYIGWVVRSYYWGQGTQVTVSS | low polyreactivity
